# Test results reported in IntAct's records for PubMed 10064581.
# B1: Circadian clock oscillator protein KaiA (Synechococcus elongatus (strain PCC 7942)), Q79PF6 (parent)
# chain: MLSQIAICIWVESTAILQDCQRALSADRYQLQVCESGEMLLEYAQTHRDQIDCLILVAANPSFRAVVQQLCFEGVVVPAIVVGDRDSEDPDEPAKEQLYHSAELHLGIHQLEQLPYQVDAALAEFLRLAPVETMADHIMLMGANHDPELSSQQRDLAQRLQERLGYLGVYYKRDPDRFLRNLPAYESQKLHQAMQTSYREIVLSYFSPNSNLNQSIDNFVNMAFFADVPVTKVVEIHMELMDEFAKKLRVEGRSEDILLDYRLTLIDVIAHLCEMYRRSIPRET
# partner: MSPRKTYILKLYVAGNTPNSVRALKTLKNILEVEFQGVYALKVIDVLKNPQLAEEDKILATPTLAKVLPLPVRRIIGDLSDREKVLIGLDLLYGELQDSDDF
# Variants of: B1
# Settings: with kaib_syne7 kaiB
row,effect of a mutation on the interaction,Variant
1,increasing interaction,MLSQIAICIWVESTAILQDCQRALSADRYQLQVCESGEMLLEYAQTHRDQIDCLILVAANPSFRAVVQQLCFEGVVVPAIVVGDRDSEDPDEPAKEQLYHSAKLHLGIHQLEQLPYQVDAALAEFLRLAPVETMADHIMLMGANHDPELSSQQRDLAQRLQERLGYLGVYYKRDPDRFLRNLPAYESQKLHQAMQTSYREIVLSYFSPNSNLNQSIDNFVNMAFFADVPVTKVVEIHMELMDEFAKKLRVEGRSEDILLDYRLTLIDVIAHLCEMYRRSIPRET [E103K]
